Data on two molecules can be found in publication PMC6415861, “The renal transport protein OATP4C1 mediates uptake of the uremic toxin asymmetric dimethylarginine (ADMA) and efflux of cardioprotective L-homoarginine” (PLoS ONE, 2019).

The target of one data set is T1, OATP4C1 (Homo sapiens, UniProt Q6ZQN7).
T1 construct: gene SLCO4C1
T1 sequence (Q6ZQN7 1-724): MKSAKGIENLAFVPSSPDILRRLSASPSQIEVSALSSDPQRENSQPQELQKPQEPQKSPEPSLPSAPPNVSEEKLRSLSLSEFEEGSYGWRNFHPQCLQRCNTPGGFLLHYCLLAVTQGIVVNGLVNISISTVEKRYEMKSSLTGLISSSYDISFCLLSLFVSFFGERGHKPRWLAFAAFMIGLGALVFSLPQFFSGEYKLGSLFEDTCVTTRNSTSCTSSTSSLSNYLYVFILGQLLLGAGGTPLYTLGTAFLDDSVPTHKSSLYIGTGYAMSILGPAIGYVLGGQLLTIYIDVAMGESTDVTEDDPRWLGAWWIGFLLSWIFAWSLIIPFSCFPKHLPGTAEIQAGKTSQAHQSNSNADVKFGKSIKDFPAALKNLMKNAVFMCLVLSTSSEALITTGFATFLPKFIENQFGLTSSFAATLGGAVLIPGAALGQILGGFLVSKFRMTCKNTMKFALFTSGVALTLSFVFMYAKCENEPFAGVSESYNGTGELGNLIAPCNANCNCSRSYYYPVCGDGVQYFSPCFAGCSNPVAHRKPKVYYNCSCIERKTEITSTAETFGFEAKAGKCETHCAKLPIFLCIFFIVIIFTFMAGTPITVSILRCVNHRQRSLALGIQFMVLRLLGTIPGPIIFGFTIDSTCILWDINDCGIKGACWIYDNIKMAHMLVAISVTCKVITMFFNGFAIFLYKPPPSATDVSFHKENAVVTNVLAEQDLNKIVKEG
As to the kind of experiment: inhibition of OATP4C1-mediated L-homoarginine ([…]) net uptake in HEK cells. The format is cell-based.

Substrate in data set [1]: N=C(N)NCCCC[C@H](N)C(=O)O
Put plainly: radiolabeled uptake and efflux in HEK-OATP4C1 vs vector control cells (Km). The format is cell-based, Homo sapiens.

Substrate in data set [2]: N=C(N)NCCC[C@H](N)C(=O)O
Put plainly: radiolabeled uptake in HEK-OATP4C1 vs vector control cells (Km). The format is cell-based, Homo sapiens.

Substrate in data set [3]: CN(C)C(=N)NCCC[C@H](N)C(=O)O
Put plainly: radiolabeled uptake and efflux in HEK-OATP4C1 vs vector control cells (Km); also inhibits L-homoarginine uptake. The data set is classed as cell-based, Homo sapiens.

Usually IC50 stands for the concentration at which inhibition is half-maximal. Read a low IC50 as higher potency. A word on the Km: it is the substrate concentration at which the rate is half of its maximum.

In the case of `CN=C(NC)NCCC[C@H](N)C(=O)O` [SDMA], 54 ± 1.3 µM corresponded to half-maximal inhibition against OATP4C1 (IC50).

B1: OATP4C1 (Homo sapiens) (protein)
chain: MKSAKGIENLAFVPSSPDILRRLSASPSQIEVSALSSDPQRENSQPQELQKPQEPQKSPEPSLPSAPPNVSEEKLRSLSLSEFEEGSYGWRNFHPQCLQRCNTPGGFLLHYCLLAVTQGIVVNGLVNISISTVEKRYEMKSSLTGLISSSYDISFCLLSLFVSFFGERGHKPRWLAFAAFMIGLGALVFSLPQFFSGEYKLGSLFEDTCVTTRNSTSCTSSTSSLSNYLYVFILGQLLLGAGGTPLYTLGTAFLDDSVPTHKSSLYIGTGYAMSILGPAIGYVLGGQLLTIYIDVAMGESTDVTEDDPRWLGAWWIGFLLSWIFAWSLIIPFSCFPKHLPGTAEIQAGKTSQAHQSNSNADVKFGKSIKDFPAALKNLMKNAVFMCLVLSTSSEALITTGFATFLPKFIENQFGLTSSFAATLGGAVLIPGAALGQILGGFLVSKFRMTCKNTMKFALFTSGVALTLSFVFMYAKCENEPFAGVSESYNGTGELGNLIAPCNANCNCSRSYYYPVCGDGVQYFSPCFAGCSNPVAHRKPKVYYNCSCIERKTEITSTAETFGFEAKAGKCETHCAKLPIFLCIFFIVIIFTFMAGTPITVSILRCVNHRQRSLALGIQFMVLRLLGTIPGPIIFGFTIDSTCILWDINDCGIKGACWIYDNIKMAHMLVAISVTCKVITMFFNGFAIFLYKPPPSATDVSFHKENAVVTNVLAEQDLNKIVKEG
As to B1, the Km in data set [1] is 49.9 ± 9.6 µM; in data set [2], 48.1 ± 5.7 µM; in data set [3], 232.1 ± 78.9 µM.
